Experimental data taken from patent publication US20230416394A1 (ELPISCIENCE SUZHOU BIOPHARMA, published 2023).
Where “and” joins values, the source holds several entries; their conditions need not be identical. Equal values may be shown once.

T1: mouse CD39 (mouse, UniProt P55772 1-510)
T1 construct: whole, on cells; also called mCD39; CHOK1-mCD39
T1 sequence (looked up): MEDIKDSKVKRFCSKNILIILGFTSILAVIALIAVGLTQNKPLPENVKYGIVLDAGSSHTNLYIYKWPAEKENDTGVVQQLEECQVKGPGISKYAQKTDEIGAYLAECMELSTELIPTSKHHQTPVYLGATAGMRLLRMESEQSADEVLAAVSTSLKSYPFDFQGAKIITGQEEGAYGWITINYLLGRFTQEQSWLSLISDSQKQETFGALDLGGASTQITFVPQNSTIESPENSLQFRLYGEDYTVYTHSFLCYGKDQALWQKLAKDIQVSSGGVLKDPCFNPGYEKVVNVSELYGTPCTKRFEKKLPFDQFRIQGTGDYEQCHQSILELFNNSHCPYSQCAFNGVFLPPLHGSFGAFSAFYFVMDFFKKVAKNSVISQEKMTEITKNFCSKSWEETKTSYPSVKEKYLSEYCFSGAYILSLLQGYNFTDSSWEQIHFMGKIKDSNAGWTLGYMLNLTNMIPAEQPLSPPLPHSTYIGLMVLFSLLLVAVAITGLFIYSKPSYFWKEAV

T2: human CD39 (human, UniProt P49961 1-510)
T2 sequence: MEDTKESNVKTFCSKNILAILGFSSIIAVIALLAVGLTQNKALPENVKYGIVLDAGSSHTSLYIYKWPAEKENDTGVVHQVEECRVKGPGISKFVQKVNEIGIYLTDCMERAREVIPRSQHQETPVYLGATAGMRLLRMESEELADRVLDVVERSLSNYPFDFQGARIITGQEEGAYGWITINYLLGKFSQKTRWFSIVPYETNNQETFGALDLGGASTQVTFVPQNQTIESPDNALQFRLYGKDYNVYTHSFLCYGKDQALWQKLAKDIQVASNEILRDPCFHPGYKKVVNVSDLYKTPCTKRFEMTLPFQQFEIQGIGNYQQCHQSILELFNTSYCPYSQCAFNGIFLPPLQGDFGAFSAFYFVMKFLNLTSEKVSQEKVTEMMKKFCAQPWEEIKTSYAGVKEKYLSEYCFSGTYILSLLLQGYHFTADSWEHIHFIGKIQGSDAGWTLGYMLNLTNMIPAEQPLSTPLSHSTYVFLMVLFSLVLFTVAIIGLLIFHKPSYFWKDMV

B1: mAb13 (antibody, V domains shown)
VH: QIQLVQSGPELKKPGETVKISCKASGYTFTNYGMNWVKQAPGKGLRWMGLINTYTGEPTYADDFKDRFAFSLETSASTAFLQINNLKDEDMATYFCARKGIYYDYVWFFDVWGAGTTVTVSS
VL: DIQMTQSPSSLSTSLGGKVSITCKASQDINRYIAWYQHKPGKGPRLLIHYTSTLLPGIPSRFSGSGSGRDYSFSISNLEPEDIATYFCLQYSNLLTFGGGTKLEIK
notes: mouse hybridoma antibody
B2: mAb14 (antibody, V domains shown)
VH: EVKLEESGGGLVQPGGSMKLSCVASGFTFSKYWMNWVRQSPEKGLEWVAEIRLKSNKYGTHYAESVKGRFTISRDDSKNNVYLQMNNLRPEDTGIYYCTTQLDLYWFFDVWGAGTTVTVSS
VL: DIVMTQSPAILSVTPGDRVSLSCRASQSISDYLHWYQQKSHESPRLLIKYASQSISGIPSRFSGSGSGSNFTLSINSVEPEDVGVYFCQNGHSLPLTFGAGTKLELR
notes: mouse hybridoma antibody
B3: mAb19 (antibody, V domains shown)
VH: EVKLEKSGGGLVQPGGSMKLSCVASGFTFSNYWMNWVRQSPEKGLEWVAQIRLNPDNYATHYAESVKGRFTISRDDYKNSVYLQMSSLRAEDSGIYYCTQHGSRGFAYWGQGTLVTVS
VL: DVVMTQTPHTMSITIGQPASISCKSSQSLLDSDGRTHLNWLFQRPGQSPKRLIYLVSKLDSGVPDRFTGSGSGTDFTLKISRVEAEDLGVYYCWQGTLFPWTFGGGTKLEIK
notes: mouse hybridoma antibody
B4: mAb21 (antibody, V domains shown)
VH: EVKLEKSGGGLVQPGGSMKLSCVASGFTFSNYWMNWVRQSPEKGLEWVAQIRLNPDNYATHFAESVKGRFTISRDDSKNSVYLQMNSLRAEDTGIYYCTEHGTRGFAYWGQGTLVTVSE
VL: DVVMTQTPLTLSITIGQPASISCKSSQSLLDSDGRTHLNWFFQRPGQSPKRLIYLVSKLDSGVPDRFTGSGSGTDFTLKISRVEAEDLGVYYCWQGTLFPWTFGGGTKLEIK
notes: mouse hybridoma antibody
B5: mAb23 (antibody, V domains shown)
VH: EVQLQQSGAELLRPGASVKLSCTASGYNLKDTFLHWVKQRPEQGLEWIGRIDPANGNIKYDPKFQGKATLTADTSSNTAYLQLISLTSEDTAVYYCANSPYYYGSGYRIFDVWGAGTTVTVSS
VL: QIVLTQSPAIMSASPGEKVTITCSAFSSVNYMHWYQQKPGTSPKLLIYTTSNLASGVPTRFSGSGSGTSYSLTISRMEAEDAATYYCQQRSTYPFTFGSGTKLEIQ
notes: mouse hybridoma antibody
B6: hu23.201 (antibody, V domains shown)
VH: QVQLVQSGAEVKKPGASVKVSCKASGYTLKDTFLHWVRQAPGQRLEWMGRIDPANGNIKYDPKFQGRVTLTADTSSNTAYMELSSLRSEDTAVYYCANSPYYYGSGYRIFDVWGQGTLVTVSS
VL: EIVLTQSPATLSLSPGERATLSCSAFSSVNYMHWYQQKPGQSPRLLIYTTSNLASGIPARFSGSGSGTDYTLTISSLEPEDFAVYYCQQRSTYPFTFGQGTKLEIK
B7: hu23.203 (antibody, V domains shown)
VH: QVQLVQSGAEVKKPGASVKVSCKASGYTLKDTFLHWVRQAPGQRLEWMGRIDPANGNIKYDPKFQGRVTLTADTSSNTAYMELSSLRSEDTAVYYCANSPYYYGSGYRIFDVWGQGTLVTVSS
VL: EIVLTQSPATLTLSPGERATLSCSAFSSVNYMHWYQQKPGQAPRLLIYTTSNLASGIPARFSGSGSGTDYTLTISSLEPEDFAVYYCQQRSTYPFTFGQGTKLEIK
B8: hu23.211 (antibody, V domains shown)
VH: EVQLVQSGAEVKKPGASVKVSCKASGYTLKDTFLHWVRQAPGQRLEWMGRIDPANGNIKYDPKFQGRVTITADTSSNTAYMELSSLRSEDTAVYYCANSPYYYGSGYRIFDVWGQGTLVTVSS
VL: EIVLTQSPATLSLSPGERATLSCSAFSSVNYMHWYQQKPGQAPRLLIYTTSNLASGIPARFSGSGSGTDYTLTISSLEPEDFAVYYCQQRSTYPFTFGQGTKLEIK
B9: hu23.H4L4 (antibody, V domains shown)
VH: QVQLVQSGAEVKKPGASVKLSCKASGYNLKDTFLHWVKQAPGQGLEWIGRIDPANGNIKYDPKFQGRATLTADTSASTAYLELSSLRSEDTAVYYCANSPYYYGSGYRIFDVWGQGTTVTVSS
VL: EIVLTQSPATLSASPGERVTISCSAFSSVNYMHWYQQKPGQAPRLLIYTTSNLASGIPARFSGSGSGTDYTLTISSMEPEDFAVYYCQQRSTYPFTFGQGTKLEIK
B10: hu23.H7L1 (antibody, V domains shown)
VH: EVQLVQSGAEVKKPGASVKLSCKASGYNLKDTFLHWVKQAPGQGLEWIGRIDPANGNIKYDPKFQGKATLTADTSANTAYLELISLRSEDTAVYYCANSPYYYGSGYRIFDVWGQGTTVTVSS
VL: EIVLTQSPATLSLSPGERATLSCSAFSSVNYMHWYQQKPGQAPRLLIYTTSNLASGIPARFSGSGSGTDFTLTISSLEPEDFAVYYCQQRSTYPFTFGQGTKLEIK
B11: hu23.H7L5 (antibody, V domains shown)
VH: EVQLVQSGAEVKKPGASVKLSCKASGYNLKDTFLHWVKQAPGQGLEWIGRIDPANGNIKYDPKFQGKATLTADTSANTAYLELISLRSEDTAVYYCANSPYYYGSGYRIFDVWGQGTTVTVSS
VL: QIVLTQSPATLSLSPGERATLSCSAFSSVNYMHWYQQKPGQAPRLLIYTTSNLASGIPTRFSGSGSGTSYTLTISSLEPEDFAVYYCQQRSTYPFTFGQGTKLEIK
B12: hu23.H7L6 (antibody, V domains shown)
VH: EVQLVQSGAEVKKPGASVKLSCKASGYNLKDTFLHWVKQAPGQGLEWIGRIDPANGNIKYDPKFQGKATLTADTSANTAYLELISLRSEDTAVYYCANSPYYYGSGYRIFDVWGQGTTVTVSS
VL: QIVLTQSPATLSASPGERATLSCSAFSSVNYMHWYQQKPGQAPKLLIYTTSNLASGVPTRFSGSGSGTSYTLTISSMEPEDFAVYYCQQRSTYPFTFGQGTKLEIK
B13: hu23.H1L2 (antibody, V domains shown)
VH: QVQLVQSGAEVKKPGASVKVSCKASGYNLKDTFLHWVRQAPGQRLEWMGRIDPANGNIKYDPKFQGRVTITRDTSASTAYMELSSLRSEDTAVYYCARSPYYYGSGYRIFDVWGQGTTVTVSS
VL: EIVLTQSPATLSLSPGERATLSCSAFSSVNYMHWYQQKPGQAPRLLIYTTSNLASGIPARFSGSGSGTDYTLTISSLEPEDFAVYYCQQRSTYPFTFGQGTKLEIK
B14: hu23.H1L4 (antibody, V domains shown)
VH: QVQLVQSGAEVKKPGASVKVSCKASGYNLKDTFLHWVRQAPGQRLEWMGRIDPANGNIKYDPKFQGRVTITRDTSASTAYMELSSLRSEDTAVYYCARSPYYYGSGYRIFDVWGQGTTVTVSS
VL: EIVLTQSPATLSASPGERVTISCSAFSSVNYMHWYQQKPGQAPRLLIYTTSNLASGIPARFSGSGSGTDYTLTISSMEPEDFAVYYCQQRSTYPFTFGQGTKLEIK
B15: hu23.H2L2 (antibody, V domains shown)
VH: QVQLVQSGAEVKKPGASVKVSCKASGYNLKDTFLHWVRQAPGQGLEWMGRIDPANGNIKYDPKFQGRVTITADTSASTAYMELSSLRSEDTAVYYCANSPYYYGSGYRIFDVWGQGTTVTVSS
VL: EIVLTQSPATLSLSPGERATLSCSAFSSVNYMHWYQQKPGQAPRLLIYTTSNLASGIPARFSGSGSGTDYTLTISSLEPEDFAVYYCQQRSTYPFTFGQGTKLEIK
B16: c23 (antibody, V domains shown)
VH: EVQLQQSGAELLRPGASVKLSCTASGYNLKDTFLHWVKQRPEQGLEWIGRIDPANGNIKYDPKFQGKATLTADTSSNTAYLQLISLTSEDTAVYYCANSPYYYGSGYRIFDVWGAGTTVTVSS
VL: QIVLTQSPAIMSASPGEKVTITCSAFSSVNYMHWYQQKPGTSPKLLIYTTSNLASGVPTRFSGSGSGTSYSLTISRMEAEDAATYYCQQRSTYPFTFGSGTKLEIQ
B17: hu23.H5L6 (antibody, V domains shown)
VH: QVQLVQSGAEVKKPGASVKVSCKASGYNLKDTFLHWVRQAPGQGLEWMGRIDPANGNIKYDPKFQGRVTITADTSANTAYMELISLRSEDTAVYYCANSPYYYGSGYRIFDVWGQGTTVTVSS
VL: QIVLTQSPATLSASPGERATLSCSAFSSVNYMHWYQQKPGQAPKLLIYTTSNLASGVPTRFSGSGSGTSYTLTISSMEPEDFAVYYCQQRSTYPFTFGQGTKLEIK

Target: T1, mouse CD39
Assay: FACS, CHOK1-mCD39 cells
Source text: FACS were used to determine binding of the antibodies to cell lines expressing CD39 naturally (SK-MEL-28) or recombinantly (CHOK1-hCD39, CHOK1-cynoCD39, and CHOK1-mCD39), or with cells lacking CD39 expression (CHOK1-blank) as a negative control.
CHOK1-hCD39, CHOK1-cCD39, CHOK1-mCD39 and CHOK1-blank cells were maintained in culture medium according to ATCC procedure. Cells were collected and re-suspended in blocking buffer at a density of 3×10⁶ cells/ml. […] The plates were washed with FACS buffer, and cells were re-suspended in 100 μL/well of PBS. Cells were then analyzed with FACSVerse™ and mean fluorescence intensity were determined. Full binding curves were generated on the CD39 expressing cells by testing a range of antibody concentrations. Apparent affinity was determined for each antibody using Prism software.

**Q.** Does B1 bind?
**A.** no binding (tested: 30 µg/ml)

**Q.** Does B2 bind?
**A.** no binding (tested: 30 µg/ml)

**Q.** Does B3 bind?
**A.** no binding (tested: 30 µg/ml)

**Q.** Does B4 bind?
**A.** no binding (tested: 30 µg/ml)

**Q.** Does B5 bind?
**A.** no binding (tested: 30 µg/ml)

Target: T2, human CD39
Assay: cell-based or functional assay

**Q.** How did the “ATPase inhibition on SK-MEL-28 cells, IC50” value (“ATPase inhibition” for short) turn out when B6 was run?
**A.** 0.264 nM

**Q.** B7 was tested. Which “ATPase inhibition” value did it give?
**A.** 0.32 nM

**Q.** B8 was tested. Which “ATPase inhibition” value did it give?
**A.** 0.386 nM

**Q.** B9 was tested. Which “ATPase inhibition” value did it give?
**A.** 0.487 nM

**Q.** With B10 as the binder, how does the “ATPase inhibition” value read?
**A.** 0.147 nM

**Q.** For B11, which “ATPase inhibition” value is on record?
**A.** 0.144 nM

**Q.** Which “ATPase inhibition” value does the source give for B12 here?
**A.** 0.121 nM

**Q.** B13 was tested. Which “ATPase inhibition” value did it give?
**A.** 0.964 nM

**Q.** Which “ATPase inhibition” value does the source give for B14 here?
**A.** 0.59 nM

**Q.** Which “ATPase inhibition” value does the source give for B15 here?
**A.** 0.767 nM

**Q.** How did the “ATPase inhibition” value turn out when B16 was run?
**A.** 0.158 nM and 0.209 nM

**Q.** With B17 as the binder, how does the “ATPase inhibition” value read?
**A.** 0.13 nM
